Experimental data: the RNAGym collection of RNA variant scans (doi:10.7554/elife.90254)

B1: OR4K15 (parent)
chain: GUUAACGGUCAUAGGCCAUGGAAACUAGGAGCACCAUUUCGCUGCCAGUGAAGAAAUGAACAAAGAAAAUCUGGGCCAGGCAGGCAUCAAAAGAAAUAGUCUUGCGCUCAACCAGAAAGUCUGUAAUCAUUUUAAGGGUA

Variants of: B1
Experiment: self-cleavage, relative activity (ratio to wild type); higher = more cleavage; in vitro, sequencing; the parent is a self-cleaving ribozyme
With G20A A68G the self-cleavage was 1.37. A22C A30G showed a self-cleavage of 1. For G21U A59G, the self-cleavage was 1.68. G20U U130C showed a self-cleavage of 1.04. A23G A78G gave a self-cleavage of 0.29. A23G A78U showed a self-cleavage of 0.36. Variant G21A U102C has a self-cleavage of 2.29. With U19C G80C the self-cleavage was 0.1. A22U A55G gave a self-cleavage of 0.73. With A22U C105U the self-cleavage was 0.18. With A22G G138U the self-cleavage was 0.66. For U19C U139C, the self-cleavage was 1.58. Work on A22G U97A yielded a self-cleavage of 0.96. With A22G U97C the self-cleavage was 1.52. In the case of G20A A60U, the self-cleavage is reported as 1.92. In the case of G21C A68G, the self-cleavage is reported as 2.19. Variant A22G A118G has a self-cleavage of 0.99. A22G U131C gave a self-cleavage of 0.51. For A22U U102C, the self-cleavage was 2.02. For A22C U139C, the self-cleavage was 0.51. With G21U U37C the self-cleavage was 1.85. Variant U19C A118G has a self-cleavage of 1.27. U19C C46A showed a self-cleavage of 1.64. Work on U19C C112A yielded a self-cleavage of 0.02. A22G G83U gave a self-cleavage of 0.54. For A22G G83A, the self-cleavage was 1.27. U19C U38A gave a self-cleavage of 1.46. U19C U100C gave a self-cleavage of 1.97. Work on U19C U100A yielded a self-cleavage of 0.71. G21A showed a self-cleavage of 0.62. Variant G21U has a self-cleavage of 1.51. Variant G21C has a self-cleavage of 0.85. In the case of G20U A78G, the self-cleavage is reported as 0.26. A22G A36G gave a self-cleavage of 1.4. For A23C U43C, the self-cleavage was 1.86. In the case of A23G A51G, the self-cleavage is reported as 1.33. Variant U19C A114C has a self-cleavage of 0.06. With U19C G28A the self-cleavage was 1.41. In the case of G21A A55G, the self-cleavage is reported as 1.29. U19G A111G gave a self-cleavage of 0.04. Work on A22G G106A yielded a self-cleavage of 0.03. Variant A22G A117G has a self-cleavage of 1.68. A22G A117U gave a self-cleavage of 0.49. A22G U72A gave a self-cleavage of 0.49. With A22G U72C the self-cleavage was 0.33. A22U A33G gave a self-cleavage of 0.56. Work on A23G A89C yielded a self-cleavage of 1.98. Variant A23G A89U has a self-cleavage of 0.72. U19C U43C showed a self-cleavage of 0.54. Variant A23C U38C has a self-cleavage of 1.73. In the case of G20A A59G, the self-cleavage is reported as 1.19. In the case of G20A A59U, the self-cleavage is reported as 0.83. With A22U A94U the self-cleavage was 1.75. For G20U A33U, the self-cleavage was 0.94. A22G G48U showed a self-cleavage of 0.9. Work on A22G A30U yielded a self-cleavage of 1.9. Variant A22G A30G has a self-cleavage of 0.99. A22U A140G showed a self-cleavage of 1.41. For A23G A66G, the self-cleavage was 1.02. A23G A66U showed a self-cleavage of 1.43. With G21A U72C the self-cleavage was 0.3. With G20A U37C the self-cleavage was 0.64. In the case of U19C G50A, the self-cleavage is reported as 1.38. In the case of G20U A111G, the self-cleavage is reported as 0.04. For G20A U72A, the self-cleavage was 0.06. For A22G G75C, the self-cleavage was 0.37. Work on U19G A60G yielded a self-cleavage of 1.61. Work on A23C U132C yielded a self-cleavage of 1.51. Work on G20C U124A yielded a self-cleavage of 0.67. With G20U C77A the self-cleavage was 0.73. Work on A22G A63C yielded a self-cleavage of 1.25. Work on A22G A63G yielded a self-cleavage of 1.72. With A22U U103C the self-cleavage was 1.66. U19C A129C showed a self-cleavage of 1.72. For G21U A52G, the self-cleavage was 1.58. Variant U19C U87C has a self-cleavage of 1.52. In the case of U19C U87A, the self-cleavage is reported as 1.48. For A22C A114U, the self-cleavage was 0.08. For U19G A126G, the self-cleavage was 1.18. Work on A22U U70C yielded a self-cleavage of 0.9. For U19C U131C, the self-cleavage was 1.14. For A22U A82U, the self-cleavage was 0.32. Work on U19C C113A yielded a self-cleavage of 0. For U19C U130C, the self-cleavage was 0.31. Work on U19G G28C yielded a self-cleavage of 0.48. Work on A22G U37C yielded a self-cleavage of 1.68. In the case of A22U U127C, the self-cleavage is reported as 1.13. For G20U A129G, the self-cleavage was 1.17. Variant A22G C25A has a self-cleavage of 0.35. For A22G C25G, the self-cleavage was 1.24. For U19C G115A, the self-cleavage was 0.03. A22G A92U gave a self-cleavage of 1.94. Work on A22G A92G yielded a self-cleavage of 1.08. In the case of A22U G44A, the self-cleavage is reported as 1.87. Work on A22G A67G yielded a self-cleavage of 1.16. With A22G A82G the self-cleavage was 0.68. For A22G A82C, the self-cleavage was 0.25. A22G A95G showed a self-cleavage of 1.75. For A23C A95G, the self-cleavage was 1.67. A22G C42U showed a self-cleavage of 1.45. Variant A22G C42A has a self-cleavage of 0.91. Variant G20A A54G has a self-cleavage of 1.28. A22G A59G gave a self-cleavage of 1.07. With A23G A63G the self-cleavage was 1.01. Variant G21A U38G has a self-cleavage of 1.15. Work on A22G A116G yielded a self-cleavage of 0.57. Variant A22G A64U has a self-cleavage of 0.62. A22G A64G gave a self-cleavage of 1.31. In the case of G20A A126G, the self-cleavage is reported as 1.02. A23G A27G gave a self-cleavage of 0.89. A22G A134G gave a self-cleavage of 1.02. Work on A22U U122A yielded a self-cleavage of 1.33. With A22U U122C the self-cleavage was 1.37. A22U C76A showed a self-cleavage of 0.16. A22G U132A showed a self-cleavage of 1.93. With A22G U132C the self-cleavage was 1.28. U19C C85U gave a self-cleavage of 0.88. A22G U57A gave a self-cleavage of 1.15. With A22U A69G the self-cleavage was 1. Variant A22U G83A has a self-cleavage of 0.93. Work on A22G A114G yielded a self-cleavage of 0.69. In the case of A22G A114C, the self-cleavage is reported as 0.03. U19C C45U showed a self-cleavage of 0.47. A22G A90U gave a self-cleavage of 2.02. U19G A94U showed a self-cleavage of 1.64. With U19G A94G the self-cleavage was 1.02. Work on G21U U87A yielded a self-cleavage of 1.31. In the case of U19C A125G, the self-cleavage is reported as 0.61. In the case of A22G C88U, the self-cleavage is reported as 2.1. U19C U39C showed a self-cleavage of 1.7. With A22G C35A the self-cleavage was 1.2. Variant A23C has a self-cleavage of 0.9. For A23G, the self-cleavage was 0.97. A22G A27U gave a self-cleavage of 1.2. For G21U U108A, the self-cleavage was 0.02. G21C C61U gave a self-cleavage of 0.94. G21U U72A showed a self-cleavage of 0.4. In the case of G20A U49C, the self-cleavage is reported as 1.6. Variant A22G U26A has a self-cleavage of 0.67. Work on A22G U26C yielded a self-cleavage of 1.02. Work on U19C C32G yielded a self-cleavage of 1.51. Variant U19C C32U has a self-cleavage of 1.32. U19G A86U showed a self-cleavage of 0.68. In the case of U19C A134G, the self-cleavage is reported as 1.62. Work on U19G A91G yielded a self-cleavage of 1.28. G20U U100C gave a self-cleavage of 2.46. In the case of A22G U43C, the self-cleavage is reported as 0.78. Work on A22G U43A yielded a self-cleavage of 1.31. In the case of A22G A78U, the self-cleavage is reported as 0.32. Work on A22G A78G yielded a self-cleavage of 0.27. Work on G20U A67G yielded a self-cleavage of 1.24. G21A A96C gave a self-cleavage of 0.6. Variant A22U A30C has a self-cleavage of 0.38. Variant G21A A33G has a self-cleavage of 0.33. Work on A22G U124C yielded a self-cleavage of 0.38. For A22G U124A, the self-cleavage was 1.29. A22G U103C gave a self-cleavage of 0.98. In the case of G21A U132A, the self-cleavage is reported as 1.94. In the case of G21A A52G, the self-cleavage is reported as 1.57. U19G A114U showed a self-cleavage of 0.1. In the case of A22U A47G, the self-cleavage is reported as 1.13. Work on A22G C107U yielded a self-cleavage of 0.06. With A22G A52G the self-cleavage was 0.91. With G20A U132C the self-cleavage was 1.92. Variant A22U C121U has a self-cleavage of 0. A22G U130C gave a self-cleavage of 0.3. With U19C G75U the self-cleavage was 0.08.
